In PMC10250220:

What was measured:
[1] = target: Flag-tagged CTC1 ΔB (human) (UniProt Q2NKJ3); assay: co-IP
CTC1 V259M;STN1;TEN1 = CTC1 V259M;STN1;TEN1 (human?;human?;human?, UniProt Q2NKJ3;Q9H668;Q86WV5 1-1217;1-368;1-123, V259M||); assay: EMSA
CTC1 A227V;STN1;TEN1 = CTC1 A227V;STN1;TEN1 (human?;human?;human?, UniProt Q2NKJ3;Q9H668;Q86WV5 1-1217;1-368;1-123, A227V||); assay: EMSA
CTC1 A227V;STN1;TEN1, sequence (Q2NKJ3 whole entry A227V, chain 1 of 3): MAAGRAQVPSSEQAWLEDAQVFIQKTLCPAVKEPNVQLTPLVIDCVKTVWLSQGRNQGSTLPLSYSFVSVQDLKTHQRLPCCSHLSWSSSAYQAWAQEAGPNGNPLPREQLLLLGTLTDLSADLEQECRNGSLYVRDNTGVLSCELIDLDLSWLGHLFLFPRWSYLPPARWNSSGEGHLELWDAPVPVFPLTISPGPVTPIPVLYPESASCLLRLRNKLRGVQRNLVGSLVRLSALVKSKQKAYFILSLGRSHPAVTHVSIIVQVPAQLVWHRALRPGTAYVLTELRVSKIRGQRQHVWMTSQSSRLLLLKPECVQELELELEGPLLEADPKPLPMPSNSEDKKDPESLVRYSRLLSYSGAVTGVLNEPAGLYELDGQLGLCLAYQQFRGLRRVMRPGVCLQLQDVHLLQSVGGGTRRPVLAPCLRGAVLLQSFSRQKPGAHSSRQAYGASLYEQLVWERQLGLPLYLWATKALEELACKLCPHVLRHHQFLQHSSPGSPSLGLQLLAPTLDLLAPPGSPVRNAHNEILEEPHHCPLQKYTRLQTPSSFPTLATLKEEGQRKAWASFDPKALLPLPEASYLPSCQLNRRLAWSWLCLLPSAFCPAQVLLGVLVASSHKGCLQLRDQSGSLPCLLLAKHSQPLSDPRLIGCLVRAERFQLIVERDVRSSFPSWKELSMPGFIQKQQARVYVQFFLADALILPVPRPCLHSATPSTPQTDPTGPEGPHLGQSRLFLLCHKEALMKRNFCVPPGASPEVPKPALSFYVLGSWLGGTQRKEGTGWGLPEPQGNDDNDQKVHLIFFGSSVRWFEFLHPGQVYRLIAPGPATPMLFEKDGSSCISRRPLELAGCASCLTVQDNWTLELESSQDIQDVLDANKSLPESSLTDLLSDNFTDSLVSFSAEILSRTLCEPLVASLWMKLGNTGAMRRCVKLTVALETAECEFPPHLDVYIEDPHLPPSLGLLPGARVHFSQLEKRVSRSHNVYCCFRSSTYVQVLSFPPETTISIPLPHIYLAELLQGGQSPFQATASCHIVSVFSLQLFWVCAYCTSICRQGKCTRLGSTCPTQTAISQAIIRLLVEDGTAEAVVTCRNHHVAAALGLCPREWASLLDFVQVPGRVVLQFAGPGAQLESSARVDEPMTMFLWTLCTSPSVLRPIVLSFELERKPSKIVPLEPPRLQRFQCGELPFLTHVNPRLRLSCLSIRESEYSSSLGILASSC
CTC1 A227V;STN1;TEN1, sequence (Q9H668 whole entry, chain 2 of 3): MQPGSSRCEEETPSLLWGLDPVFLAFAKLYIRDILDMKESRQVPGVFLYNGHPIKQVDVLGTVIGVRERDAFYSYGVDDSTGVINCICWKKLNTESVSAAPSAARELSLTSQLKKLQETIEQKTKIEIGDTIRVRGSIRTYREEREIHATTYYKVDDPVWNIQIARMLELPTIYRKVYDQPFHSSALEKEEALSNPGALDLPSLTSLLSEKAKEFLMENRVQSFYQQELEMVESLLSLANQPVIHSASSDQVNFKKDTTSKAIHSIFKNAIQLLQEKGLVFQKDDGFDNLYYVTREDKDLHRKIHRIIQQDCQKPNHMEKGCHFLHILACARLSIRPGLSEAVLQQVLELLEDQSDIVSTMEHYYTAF
CTC1 A227V;STN1;TEN1, sequence (Q86WV5 whole entry, chain 3 of 3): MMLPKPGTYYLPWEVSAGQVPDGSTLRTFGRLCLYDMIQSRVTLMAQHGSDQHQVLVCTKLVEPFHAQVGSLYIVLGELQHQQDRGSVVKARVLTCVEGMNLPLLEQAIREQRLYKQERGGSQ

Flag-tagged CTC1 ΔB (human), sequence (Q2NKJ3 whole entry, stated change not applied): as the sequence (Q2NKJ3 whole entry A227V, chain 1 of 3) above, with V227A counted along it
Myc-tagged TPP1, sequence (Q96AP0 whole entry): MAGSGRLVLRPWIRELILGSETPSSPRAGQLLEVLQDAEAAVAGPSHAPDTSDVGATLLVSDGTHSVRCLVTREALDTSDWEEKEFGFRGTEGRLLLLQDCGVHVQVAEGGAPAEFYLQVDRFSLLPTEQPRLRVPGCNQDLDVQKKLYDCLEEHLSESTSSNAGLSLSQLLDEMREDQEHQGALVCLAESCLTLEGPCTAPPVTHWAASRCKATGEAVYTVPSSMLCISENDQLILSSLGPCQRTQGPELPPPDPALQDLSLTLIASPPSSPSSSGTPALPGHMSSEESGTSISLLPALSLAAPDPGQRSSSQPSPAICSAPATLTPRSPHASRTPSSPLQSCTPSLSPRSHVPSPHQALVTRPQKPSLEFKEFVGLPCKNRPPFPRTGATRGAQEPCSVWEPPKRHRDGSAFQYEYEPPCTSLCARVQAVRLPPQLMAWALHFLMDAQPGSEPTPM
CTC1 V259M;STN1;TEN1, sequence (Q2NKJ3 whole entry V259M, chain 1 of 3): as the sequence (Q2NKJ3 whole entry A227V, chain 1 of 3) above, with V227A, V259M counted along it
CTC1 V259M;STN1;TEN1, sequence (Q9H668 whole entry, chain 2 of 3): as the sequence (Q9H668 whole entry, chain 2 of 3) above
CTC1 V259M;STN1;TEN1, sequence (Q86WV5 whole entry, chain 3 of 3): as the sequence (Q86WV5 whole entry, chain 3 of 3) above

percent decrease of TPP1 co-immunoprecipitated, against WT CTC1 [1] [%]	Molecule	binding result (CTC1 V259M;STN1;TEN1)	binding result (CTC1 A227V;STN1;TEN1)
44	Myc-tagged TPP1 (from UniProt Q96AP0 1-458) (natural protein)	–	–
–	GGTTAGGGTTAGGGTTAG (ssDNA) [Tel-18 CY7]	binds	binds
